{"source": "the RNAGym collection of RNA variant scans (doi:10.7554/elife.80360)", "parents": {"B1": {"name": "CPEB3 Ribozyme (parent)", "chain": "GGGGGCCACAGCAGAAGCGUUCACGUCGCGGCCCCUGUCAGAUUCUGGUGAAUCUGCGAAUUCUGCUGU"}}}
{"variants_of": "B1", "assay": "self-cleavage, relative activity (ratio to wild type); higher = more cleavage; co-transcriptional"}
{"variant": "GUGGGCCACAGCAGAAGCGUUCACGUCGCGGCCCCUGCCAGAUUCUGGUGAAUCUGCGAAUUCUGCUGU", "note": "[G2U U38C]", "self-cleavage": 0.095}
{"variant": "GUGGGCCACAGCAGAAGCGUUCACGUCGCGGCCCCUGACAGAUUCUGGUGAAUCUGCGAAUUCUGCUGU", "note": "[G2U U38A]", "self-cleavage": 0.0631}
{"variant": "GUGGGCCACAGCAGAAGCGUUCACGUCGCGGCCCCUGUCAGAUUCUGCUGAAUCUGCGAAUUCUGCUGU", "note": "[G2U G48C]", "self-cleavage": 0.0769}
{"variant": "GCGGGCCACAGCAGAAGCGUUCACGUCGCGGCCCCUGUCAGAUUCUGGUAAAUCUGCGAAUUCUGCUGU", "note": "[G2C G50A]", "self-cleavage": 0.0951}
{"variant": "GUGGGCCACAGCAGAAGCGUUCACGUCGCGGCCCCUGUCAGAUUCUGGUGAGUCUGCGAAUUCUGCUGU", "note": "[G2U A52G]", "self-cleavage": 0.0867}
{"variant": "GUGGGCCACAGCAGAAGCGUUCACGUCGCGGCCCCUGUCAGAUUCUGGUGAUUCUGCGAAUUCUGCUGU", "note": "[G2U A52U]", "self-cleavage": 0.0917}
{"variant": "GUGGGCCACAGCAGAAGCGUUCACGUCGCGGCCCCUGUCAGAUUCUGGUAAAUCUGCGAAUUCUGCUGU", "note": "[G2U G50A]", "self-cleavage": 0.0766}
{"variant": "GUGGGCCACAGCAGAAGCGUUCACGUCGCGGCCCCUGUCAGAUUCUGGUGAAUCUGCGAAUUAUGCUGU", "note": "[G2U C63A]", "self-cleavage": 0.127}
{"variant": "GUGGGCCACAGCAGAAGCGUUCACGUCGCGGCCCCUGUCAGAUUCUGGUGAAUCUGCGAAUUUUGCUGU", "note": "[G2U C63U]", "self-cleavage": 0.117}
{"variant": "GUGGGCCACAGCAGAAGCGUUCACGUCGCGGCCCCUGUCAGAUUCUGGUGAAUCUGCGAAUUGUGCUGU", "note": "[G2U C63G]", "self-cleavage": 0.102}
{"variant": "GUGGGCCACAGCAGAAGCGUUCACGUCGCGGCCCCUGUCAGAUUCUGGUGAAUCUGUGAAUUCUGCUGU", "note": "[G2U C57U]", "self-cleavage": 0.0179}
{"variant": "GCGGGCCACAGCAGAAGCGUUCACGUCGCGGCCCCUGUCAGAUUCUGGUGAAUCUGCGAAUUCUACUGU", "note": "[G2C G65A]", "self-cleavage": 0.0284}
{"variant": "GCGGGCCACAGCAGAAGCGUUCACGUCGCGGCCCCUGUCAGAUUCUGGUGAAUCUGCGAAUUCUUCUGU", "note": "[G2C G65U]", "self-cleavage": 0.102}
{"variant": "GCGGGCCACAGCAGAAGCGUUCACGUCGCGGCCCCUGUCAGAGUCUGGUGAAUCUGCGAAUUCUGCUGU", "note": "[G2C U43G]", "self-cleavage": 0.0524}
{"variant": "GUGGGCCACAGCAGAAGCGUUCACGUCGCGGCCCCUGUCAGAUUCUGGUGCAUCUGCGAAUUCUGCUGU", "note": "[G2U A51C]", "self-cleavage": 0.102}
{"variant": "GUGGGCCACGGCAGAAGCGUUCACGUCGCGGCCCCUGUCAGAUUCUGGUGAAUCUGCGAAUUCUGCUGU", "note": "[G2U A10G]", "self-cleavage": 0.116}
{"variant": "GUGGGCCACUGCAGAAGCGUUCACGUCGCGGCCCCUGUCAGAUUCUGGUGAAUCUGCGAAUUCUGCUGU", "note": "[G2U A10U]", "self-cleavage": 0.138}
{"variant": "GCGGGCCACAGCAGAAGCGUUCACGUCGCGGCCCCUGUCAGAUUCUGGUGAAUCUGCGAAUCCUGCUGU", "note": "[G2C U62C]", "self-cleavage": 0.011}
{"variant": "GUGGGCCACAGCAGAAGCGUUCACGUCGCGGCCCCUGUCAGAUUCUGGUGAAUCUGCGAAUUCUACUGU", "note": "[G2U G65A]", "self-cleavage": 0.0788}
{"variant": "GCGGGCCACAGCAGAAGCGUUCACGUCGCGGCCCCUGUCAGAUUCUGGUGAACCUGCGAAUUCUGCUGU", "note": "[G2C U53C]", "self-cleavage": 0.0834}
{"variant": "GCGGGCCACAGCAGAAGCGUUCACGUCGCGGCCCCUGUCAGAUUCUGGUGAAACUGCGAAUUCUGCUGU", "note": "[G2C U53A]", "self-cleavage": 0.0158}
{"variant": "GCGGGCCACAGCAGAAGCGUUCACGUCGCGGCCCCUGUCAGAUUCUGGUGAAUCAGCGAAUUCUGCUGU", "note": "[G2C U55A]", "self-cleavage": 0.0429}
{"variant": "GUGGGCCACACCAGAAGCGUUCACGUCGCGGCCCCUGUCAGAUUCUGGUGAAUCUGCGAAUUCUGCUGU", "note": "[G2U G11C]", "self-cleavage": 0.0923}
{"variant": "GUGGGCCACAGCAGAAGCGUUCACGUCGCGACCCCUGUCAGAUUCUGGUGAAUCUGCGAAUUCUGCUGU", "note": "[G2U G31A]", "self-cleavage": 0.0769}
{"variant": "GCGGGCCACAGCAGAAGCGUUCACGUCGCGGCCCCUGUCAGAUUCUGGUGAAUCUGCAAAUUCUGCUGU", "note": "[G2C G58A]", "self-cleavage": 0.0591}
{"variant": "GUGAGCCACAGCAGAAGCGUUCACGUCGCGGCCCCUGUCAGAUUCUGGUGAAUCUGCGAAUUCUGCUGU", "note": "[G2U G4A]", "self-cleavage": 0.0959}
{"variant": "GUGGGCCACAGCAGAACCGUUCACGUCGCGGCCCCUGUCAGAUUCUGGUGAAUCUGCGAAUUCUGCUGU", "note": "[G2U G17C]", "self-cleavage": 0.0396}
{"variant": "GUGGGCCACAGCAGAAUCGUUCACGUCGCGGCCCCUGUCAGAUUCUGGUGAAUCUGCGAAUUCUGCUGU", "note": "[G2U G17U]", "self-cleavage": 0.039}
{"variant": "GUGGGCCACAGCAGAAGCGUUCACGUCGCGGCCCCUGUCAGAUUCUGGUGAAUAUGCGAAUUCUGCUGU", "note": "[G2U C54A]", "self-cleavage": 0.0587}
{"variant": "GUGGGCCACAGCAGAAGCGUUCACGUCGCGGCCCUUGUCAGAUUCUGGUGAAUCUGCGAAUUCUGCUGU", "note": "[G2U C35U]", "self-cleavage": 0.0749}
{"variant": "GUGGGCCACAGCAGAAGCGUUCACGUCGCGGCCCGUGUCAGAUUCUGGUGAAUCUGCGAAUUCUGCUGU", "note": "[G2U C35G]", "self-cleavage": 0.109}
{"variant": "GUUGGCCACAGCAGAAGCGUUCACGUCGCGGCCCCUGUCAGAUUCUGGUGAAUCUGCGAAUUCUGCUGU", "note": "[G2U G3U]", "self-cleavage": 0.0485}
{"variant": "GUGGGCCACAGCAGAAGCGUUCACGUCGCGGCCCCUGUCAGAUUCUGGUGAAUCUGCGGAUUCUGCUGU", "note": "[G2U A59G]", "self-cleavage": 0.0714}
{"variant": "GUGGGCCACAGCAGAAGCGUUCACGUCUCGGCCCCUGUCAGAUUCUGGUGAAUCUGCGAAUUCUGCUGU", "note": "[G2U G28U]", "self-cleavage": 0.0242}
{"variant": "GCGGGCCACAGCAGAAGCGUCCACGUCGCGGCCCCUGUCAGAUUCUGGUGAAUCUGCGAAUUCUGCUGU", "note": "[G2C U21C]", "self-cleavage": 0.0403}
{"variant": "GUGGGCCACAGCAGAAGCGUUCACGUAGCGGCCCCUGUCAGAUUCUGGUGAAUCUGCGAAUUCUGCUGU", "note": "[G2U C27A]", "self-cleavage": 0.0514}
{"variant": "GUGGGCCACAGCAGAAGCGUUCGCGUCGCGGCCCCUGUCAGAUUCUGGUGAAUCUGCGAAUUCUGCUGU", "note": "[G2U A23G]", "self-cleavage": 0.0867}
{"variant": "GCGGGCCACAGCAGAAGCGGUCACGUCGCGGCCCCUGUCAGAUUCUGGUGAAUCUGCGAAUUCUGCUGU", "note": "[G2C U20G]", "self-cleavage": 0.0688}
{"variant": "GUGGGCCACAGCAGAAGCGUUCACGUCGCGGCCCCGGUCAGAUUCUGGUGAAUCUGCGAAUUCUGCUGU", "note": "[G2U U36G]", "self-cleavage": 0.0492}
